Data published in US20170029794.

What was measured:
[1] = tested on: TALEN right arm (pCLS9996) (artificial (Xanthomonas TALE?)); assay: cell_activity; settings: paired with left arm P2; 153 of 153 galactose colonies of homozygous sup4-(CAG) diploid yeast show repeat contraction; >99% gene conversion in heterozygous …
[2] = tested on: TALEN left arm (pCLS16715) (artificial (Xanthomonas TALE?)); assay: cell_activity; settings: paired with right arm P1; 153 of 153 galactose colonies of homozygous sup4-(CAG) diploid yeast show repeat contraction; >99% gene conversion in heterozygous …

| Sequence | activity [1] [%] | activity [2] [%] |
| --- | --- | --- |
| GCTGCTGCTGCTGCT (double strand) [right TALE target site in sup4-(CAG)] | 100 |  |
| GTGATCCCCCCAGCA (double strand) [left TALE target site in sup4-(CAG)] |  | 100 |
